Test results taken from article PMC9364601.
One block for each molecule: values may come before it.

Experiments:
[1] = target: microtubules polymerized from tubulin purified from goat brain, Taxol-stabilised (goat)
[2] = target: microtubules polymerized from tubulin purified from goat brain, Taxol-stabilised (goat); assay: single-molecule motility assay (TIRF); Taxol-stabilised MTs adsorbed on the coverslip, purified fluorescent motors in the motility mix; P12 buffer pH 6.8, BSA, 2 mM ATP, room temperature; run time and detachment rate computed from run length and velocity
[3] = target: microtubules polymerized from tubulin purified from goat brain, Taxol-stabilised (goat); remark: listed apart in the source

Molecule: KIF1A(1-393LZ)-mCit-Flag (from UniProt F1M4A4 1-393) (domain or fragment)
Km for microtubules of the MT-stimulated ATPase (Michaelis-Menten fit; 10 nM motor, 1-80 µM MTs, BRB80, room temperature) [1]: 7.03 µM
detachment rate from the MT (koff) [2]: 0.23 s⁻¹
mean run time (average time spent on the MT) [2]: 4.38 s

Molecule: KHC(1–560)-mCit-Flag (from UniProt P56536 1-560) (domain or fragment)
Km for microtubules of the MT-stimulated ATPase (Michaelis-Menten fit; 10 nM motor, 1-80 µM MTs, BRB80, room temperature) [1]: 10.2 µM
detachment rate from the MT (koff) [2]: 0.72 s⁻¹
mean run time (average time spent on the MT) [2]: 1.39 s

B1: KIF13B(1-412ΔP391)-mCit-Flag (domain or fragment)
chain: MGDSKVKVAVRIRPMNRRETDLHTKCVVDVDANKVILNPVNTNLSKGDARGQPKVFAYDHCFWSMDESVKEKYAGQDIVFKCLGENILQNAFDGYNACIFAYGQTGSGKSYTMMGTADQPGLIPRLCSGLFERTQKEENEEQSFKVEVSYMEIYNEKVRDLLDPKGSRQTLKVREHSVLGPYVDGLSKLAVTSYKDIESLMSEGNKSRTVAATNMNEESSRSHAVFKITLTHTLYDVKSGTSGEKVGKLSLVDLAGSERATKTGAAGDRLKEGSNINKSLTTLGLVISALADQSAGKNKNKFVPYRDSVLTWLLKDSLGGNSKTAMVATVSPAADNYDETLSTLRYADRAKHIVNHAVVNEDPNARIIRDLREEVEKLREQLTKAEAMKSELKDRLEESEKLIQEMTVTWE
Km for microtubules of the MT-stimulated ATPase (Michaelis-Menten fit; 10 nM motor, 1-80 µM MTs, BRB80, room temperature) [1]: 4.23 µM
detachment rate from the MT (koff) [2]: 0.12 s⁻¹
mean run time (average time spent on the MT) [2]: 8.06 s

B2: KIF13A(1-411ΔP390)-mCit-Flag (domain or fragment)
chain: MSDTKVKVAVRVRPMNRRELELNTKCVVEMEGNQTVLHPPPSNTKQGERKPPKVFAFDYCFWSMDESNTTKYAGQEVVFKCLGEGILEKAFQGYNACIFAYGQTGSGKSFSMMGHAEQLGLIPRLCCALFKRISLEQNESQTFKVEVSYMEIYNEKVRDLLDPKGSRQSLKVREHKVLGPYVDGLSQLAVTSFEDIESLMSEGNKSRTVAATNMNEESSRSHAVFNIIITQTLYDLQSGNSGEKVSKVSLVDLAGSERVSKTGAAGERLKEGSNINKSLTTLGLVISSLADQAAGKGKSKFVPYRDSVLTWLLKDNLGGNSQTSMIATISPAADNYEETLSTLRYADRAKRIVNHAVVNEDPNAKVIRELREEVEKLREQLSQAEAMKAELKEKLEESEKLIKELTVTWE
Km for microtubules of the MT-stimulated ATPase (Michaelis-Menten fit; 10 nM motor, 1-80 µM MTs, BRB80, room temperature) [1]: 5.16 µM
detachment rate from the MT (koff) [2]: 0.15 s⁻¹
mean run time (average time spent on the MT) [2]: 6.61 s

Other lines, results leading:

microtubule affinity from the enzyme kinetics of the MT-stimulated ATPase, decrease compared to wild-type motors (times (decrease against wild type)) [3]: 1.5
Molecule: KIF1A R167C mutant motor, purified (domain or fragment)

Km for microtubules of the MT-stimulated ATPase (Michaelis-Menten fit; 10 nM motor, 1-80 µM MTs, BRB80, room temperature) [1]: 2.43 µM
detachment rate from the MT (koff) [2]: 0.1 s⁻¹
mean run time (average time spent on the MT) [2]: 9.83 s
Molecule: KIF16B(1–400)-mCit-Flag (from UniProt Q96L93 1-400) (domain or fragment)
